Data on four molecules can be found in PMC2533787 (The Journal of Biological Chemistry, 2008).

Test [1] concerns the target Full-length recombinant human TSG-6 (human, UniProt P98066 18-277). Kind of test: SPR. (In general: SPR reads the build-up and loss of mass on a sensor chip optically.)
In test [2] the target is CUB_C_TSG6 (the CUB domain and C-terminal 27 amino acids of human TSG-6) (human, UniProt P98066 129-277). Kind of test: SPR.
Sequence of CUB_C_TSG6 (the CUB domain and C-terminal 27 amino acids of human TSG-6) (P98066 129-277): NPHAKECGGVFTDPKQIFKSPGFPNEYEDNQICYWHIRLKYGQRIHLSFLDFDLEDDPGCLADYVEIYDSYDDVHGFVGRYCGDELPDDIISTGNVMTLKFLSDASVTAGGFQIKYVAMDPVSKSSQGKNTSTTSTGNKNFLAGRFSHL

Sequence of Full-length recombinant human TSG-6 (P98066 18-277): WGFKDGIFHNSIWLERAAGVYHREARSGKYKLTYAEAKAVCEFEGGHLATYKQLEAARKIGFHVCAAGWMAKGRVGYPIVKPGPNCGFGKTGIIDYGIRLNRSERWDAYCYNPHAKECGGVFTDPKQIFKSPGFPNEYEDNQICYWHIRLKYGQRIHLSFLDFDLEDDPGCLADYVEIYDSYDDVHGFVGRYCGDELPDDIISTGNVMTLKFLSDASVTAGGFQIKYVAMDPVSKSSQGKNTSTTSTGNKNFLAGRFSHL

B1: BMP-14 (ligand, UniProt P43026 382-501, looked up)
chain: APLATRQGKRPSKNLKARCSRKALHVNFKDMGWDDWIIAPLEYEAFHCEGLCEFPLRSHLEPTNHAVIQTLMNSMDPESTPPTCCVPTRLSPISILFIDSANNVVYKQYEDMVVESCGCR
With B1, the results for the Kd in test [1] and in test [2] were 184 nM and 10800 nM, respectively.

B2: soluble receptor activator of NF-κB ligand (ligand, UniProt O14788 140-317, looked up)
chain: IRAEKAMVDGSWLDLAKRSKLEAQPFAHLTINATDIPSGSHKVSLSSWYHDRGWAKISNMTFSNGKLIVNQDGFYYLYANICFRHHETSGDLATEYLQLMVYVTKTSIKIPSSHTLMKGGSTKYWSGNSEFHFYSINVGGFFKLRSGEEISIEVSNPSLLDPDQDATYFGAFKVRDID
As to B2, the Kd in test [1] came out at 1970 nM.

B3: BMP-13 (ligand, UniProt Q6KF10 336-455, looked up)
chain: TAFASRHGKRHGKKSRLRCSKKPLHVNFKELGWDDWIIAPLEYEAYHCEGVCDFPLRSHLEPTNHAIIQTLMNSMDPGSTPPSCCVPTKLTPISILYIDAGNNVVYKQYEDMVVESCGCR
As for B3, the Kd was 236 nM in test [1] and 6880 nM in test [2].

B4: bone morphogenetic protein-2 (ligand, UniProt P12643 283-396, looked up)
chain: QAKHKQRKRLKSSCKRHPLYVDFSDVGWNDWIVAPPGYHAFYCHGECPFPLADHLNSTNHAIVQTLVNSVNSKIPKACCVPTELSAISMLYLDENEKVVLKNYQDMVVEGCGCR
In the case of B4, the Kd in test [1] amounted to 220 nM; in test [2] it was 2540 nM.

What is called Kd is the equilibrium constant for the complex coming apart.
